In one data set the test system is CsgG. Description: Pulldown assay of CsgF variants/domains with CsgG as bait. In kind it is binding, E. coli K12. The following applies: CsgF variants with C-terminal MBP tag. On the procedure: The procedure of CsgG purification was similar to that of the CsgFG complex. […] After incubation for 30 min, the mixture was loaded into a Strep-Tactin column (IBA). […] Individual CsgG and CsgF variants were purified as input by Strep-Tactin and Ni-NTA, respectively. The samples were analyzed by 15% SDS–PAGE and stained with Coomassie blue.
CsgFGBD-MBP mutant variants were purified as soluble protein by Ni-NTA. CsgG were purified as membrane protein by Strep-Tactin and substituted by amphipole A8-35. CsgFGBD-MBP mutant variants (36 μM) and CsgG nonamer (2 μM) were mixed together at 4 °C for 2 h and then incubated with equal volume of Strep-Tactin beads at 4 °C for 1 h.
Supplementary Figure 5. Interaction mode between CsgFN and CsgG. a, Interaction of CsgFN and CsgG. […] Two adjacent subunits of CsgG are shown in magenta and cyan, respectively. b, Hydrogen bonds and electrostatic interaction between CsgFN and CsgG. Hydrogen bonds are shown as red […]
aromatic residues in CsgG. d, The hydrophobic interaction between CsgFN and CsgG. e, Pulldown assay between the CsgF(C-terminal MBP tag) mutant variants and CsgG. […] Source data are provided as a Source Data file.
(1 picture or pasted object on this page, not shown here)

The subject of the next data set is CsgB. Description: Pulldown assay of CsgB by CsgF domains. The following applies: CsgB C-terminal MBP tag, CsgF parts N-terminal MBP tag; western blot. It is filed as binding, E. coli. On the technique in general: A western blot detects proteins with antibodies after separation by electrophoresis.
Data set [1] concerns the molecule itself. The data set is described as follows: cryo-EM structure; CsgFG complex co-expressed from the CsgEFG operon, purified in LDAO; single-particle cryo-EM, 3.8 Å without symmetry, 3.38 Å with C9 symmetry.
Data set [2] concerns curli cell association in E. coli K-12 strain BW25113. Description: Congo red cell-association assay. It is filed as cell-based, E. coli K-12 BW25113. To be noted: CsgF variants, scraped YESCA plates after 48 h. On the procedure: (§1) The E. coli K-12 strain BW25113 wild type (WT) and mutants were cultured overnight in LB at 37 °C. To induce curli production, 5 μl sample was spotted on YESCA plates (10 g/L casamino acids, 1 g/L yeast extract, and 20 g/L Bacto agar) supplemented with 100 μg/ml ampicillin and 90 μg/ml Congo red. The plates were incubated at 26 °C for 48 h. […] For overexpression assay in the ΔCsgE mutant strain, 3 μM IPTG was also supplemented in the YESCA plates.
For the Congo red cell-association assay, after growing in YESCA plates for 48 h, the cells were scraped from the plates and the scraped plates were observed. The remaining plates with curli cell association appeared white, while the remaining plates without curli cell association appeared red.

Data set [3] has as its system curli production in E. coli K-12 strain BW25113. The data set is described as follows: Congo red secretion assay of CsgF, CsgA or CsgG variants. It is filed as cell-based, E. coli K-12 BW25113. On the procedure: as §1
In data set [4] the target is T1, Wild-type CsgG (expressed alone) (E. coli K12, UniProt P0AEA2 16-277).
T1 construct: also called CsgG nonamer; nonameric CsgG
T1 sequence (looked up): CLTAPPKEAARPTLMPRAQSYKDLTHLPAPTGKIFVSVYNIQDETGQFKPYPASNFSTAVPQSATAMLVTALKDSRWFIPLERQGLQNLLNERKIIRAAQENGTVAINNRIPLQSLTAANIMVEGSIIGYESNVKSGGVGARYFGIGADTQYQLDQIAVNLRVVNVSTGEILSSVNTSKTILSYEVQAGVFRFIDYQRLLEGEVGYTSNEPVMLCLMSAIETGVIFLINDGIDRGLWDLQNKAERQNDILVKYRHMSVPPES
The data set is described as follows: ITC; MicroCal ITC200, 25 °C; nonameric CsgG in amphipole A8-35 in the cell (2 or 10 μM), CsgFN-MBP (200 μM), CsgAN6 peptide (1 mM) or PeptideN (60 µM) in the syringe; 10 mM HEPES pH 7.5, 50 mM NaCl. To be noted: both partners purified. In general terms: Isothermal titration calorimetry measures the heat released or taken up as one component is titrated into another.

Broadly, the stoichiometry N is a count of units in the complex or per binding partner. Broadly, the Kd is the constant that tells how readily two partners part at equilibrium. A high value points to a looser complex.

Entries after “also recorded” stand apart in the source; their conditions may differ.

Protocol for CsgB: After incubation for 20 min, the mixture was loaded to a Strep-Tactin column (IBA). The beads were washed four times with a buffer having 25 mM Tris-HCl at pH 8.0, 150 mM NaCl, and eluted in a buffer having 25 mM Tris-HCl at pH 8.0, 150 mM NaCl, and 2.5 mM desthiobiotin. […] The samples were analyzed by 15% SDS–PAGE and detected by western blotting.

As to “CsgFN: N-terminal domain of CsgF (CsgFN, residues 1–36)”, the “CsgF-CsgG interaction in pulldown” value in the data set on CsgG was “CsgG can pulldown both the full-length CsgF and CsgFN”. Further, the “pulldown of CsgB” value with CsgB is listed as “could not pulldown CsgB”.

B1: CsgF (from the CsgEFG operon) (natural protein, E. coli K12, UniProt P0AE98 20-138, looked up)
chain: GTMTFQFRNPNFGGNPNNGAFLLNSAQAQNSYKDPSYNDDFGIETPSALDNFTQAIQSQILGGLLSNINTGKPGRMVTNDYIVDIANRDGQLQLNVTDRKTGQTSTIQVSGLQNNSTDF
notes: also called CsgFN (residues 1-36) and CsgFC (residues 37-119) are its domains; source: E. coli BL21 (DE3), co-expressed from the CsgEFG operon, co-purified with CsgG (Strep-Tactin, SEC)
Consider B1, for which the “stoichiometry N” value in data set [1] was determined as 9 subunits.

B2: F7D (protein)
chain: GTMTFQDRNPNFGGNPNNGAFLLNSAQAQNSYKDPSYNDDFGIETPSALDNFTQAIQSQILGGLLSNINTGKPGRMVTNDYIVDIANRDGQLQLNVTDRKTGQTSTIQVSGLQNNSTDF
modifications: left off: MBP, end not stated, kept | His tag (from the Ni-NTA purification), end not stated, state not stated
Regarding B2, the “CsgF-CsgG interaction in pulldown” value with CsgG is “abolished the interaction between CsgF and CsgG; also recorded: didn’t see binding”. Moreover, in data set [2], the “Congo red cell-association phenotype” value was “nearly eliminated”.

B3: F21D (protein)
chain: GTMTFQFRNPNFGGNPNNGADLLNSAQAQNSYKDPSYNDDFGIETPSALDNFTQAIQSQILGGLLSNINTGKPGRMVTNDYIVDIANRDGQLQLNVTDRKTGQTSTIQVSGLQNNSTDF
modifications: left off: MBP, end not stated, kept | His tag (from the Ni-NTA purification), end not stated, state not stated
B3: the “CsgF-CsgG interaction in pulldown” value in the data set on CsgG was “did not show any detectable influence on CsgF-CsgG interaction”.

B4: F5D (protein)
chain: GTMTDQFRNPNFGGNPNNGAFLLNSAQAQNSYKDPSYNDDFGIETPSALDNFTQAIQSQILGGLLSNINTGKPGRMVTNDYIVDIANRDGQLQLNVTDRKTGQTSTIQVSGLQNNSTDF
modifications: left off: MBP, end not stated, kept | His tag (from the Ni-NTA purification), end not stated, state not stated
As to B4, the “CsgF-CsgG interaction in pulldown” value with CsgG is “abolished the interaction between CsgF and CsgG”. Further, in data set [2], the “Congo red cell-association phenotype” value is listed as “nearly eliminated”.

B5: N9A (protein)
chain: GTMTFQFRAPNFGGNPNNGAFLLNSAQAQNSYKDPSYNDDFGIETPSALDNFTQAIQSQILGGLLSNINTGKPGRMVTNDYIVDIANRDGQLQLNVTDRKTGQTSTIQVSGLQNNSTDF
modifications: left off: MBP, end not stated, kept | His tag (from the Ni-NTA purification), end not stated, state not stated
As for B5, in the data set with CsgG, the “CsgF-CsgG interaction in pulldown” value was “showed reduced interaction between CsgF and CsgG”.

B6: R8A (protein)
chain: GTMTFQFANPNFGGNPNNGAFLLNSAQAQNSYKDPSYNDDFGIETPSALDNFTQAIQSQILGGLLSNINTGKPGRMVTNDYIVDIANRDGQLQLNVTDRKTGQTSTIQVSGLQNNSTDF
modifications: left off: MBP, end not stated, kept | His tag (from the Ni-NTA purification), end not stated, state not stated
Take B6: the “CsgF-CsgG interaction in pulldown” value in the data set on CsgG was “showed reduced interaction between CsgF and CsgG”.

B7: L23D (protein)
chain: GTMTFQFRNPNFGGNPNNGAFLDNSAQAQNSYKDPSYNDDFGIETPSALDNFTQAIQSQILGGLLSNINTGKPGRMVTNDYIVDIANRDGQLQLNVTDRKTGQTSTIQVSGLQNNSTDF
modifications: left off: MBP, end not stated, kept | His tag (from the Ni-NTA purification), end not stated, state not stated
Take B7: the “CsgF-CsgG interaction in pulldown” value with CsgG was “showed reduced interaction between CsgF and CsgG”.

B8: F12D (protein)
chain: GTMTFQFRNPNDGGNPNNGAFLLNSAQAQNSYKDPSYNDDFGIETPSALDNFTQAIQSQILGGLLSNINTGKPGRMVTNDYIVDIANRDGQLQLNVTDRKTGQTSTIQVSGLQNNSTDF
modifications: left off: MBP, end not stated, kept | His tag (from the Ni-NTA purification), end not stated, state not stated
B8: the “CsgF-CsgG interaction in pulldown” value in the data set with CsgG was “abolished the interaction between CsgF and CsgG”. Further, the “Congo red cell-association phenotype” value in data set [2] is “nearly eliminated”.

B9: N11A (protein)
chain: GTMTFQFRNPAFGGNPNNGAFLLNSAQAQNSYKDPSYNDDFGIETPSALDNFTQAIQSQILGGLLSNINTGKPGRMVTNDYIVDIANRDGQLQLNVTDRKTGQTSTIQVSGLQNNSTDF
modifications: left off: MBP, end not stated, kept | His tag (from the Ni-NTA purification), end not stated, state not stated
Consider B9, for which, in the data set with CsgG, the “CsgF-CsgG interaction in pulldown” value is “did not show any detectable influence on CsgF-CsgG interaction”.

B10: CsgFN17R: N17R-mutated CsgF (protein, UniProt P0AE98 20-138, looked up, variant N17R)
Curli production …: GTMTFQFRNPNFGGNPRNGAFLLNSAQAQNSYKDPSYNDDFGIETPSALDNFTQAIQSQILGGLLSNINTGKPGRMVTNDYIVDIANRDGQLQLNVTDRKTGQTSTIQVSGLQNNSTDF
On to B10, for which the “Congo red secretion phenotype (curli formation)” value in data set [3] (CsgF variants in ∆CsgF strain, YESCA/Congo red plates, 26 °C, 48 h) is on record as “loss of the Congo red phenotype”. The “Congo red secretion phenotype” value in data set [3] (N17R-mutated CsgF expressed in wild type (WT) strain) is “largely reduced Congo red phenotype”.

B11: L22D (protein)
chain: GTMTFQFRNPNFGGNPNNGAFDLNSAQAQNSYKDPSYNDDFGIETPSALDNFTQAIQSQILGGLLSNINTGKPGRMVTNDYIVDIANRDGQLQLNVTDRKTGQTSTIQVSGLQNNSTDF
modifications: left off: MBP, end not stated, kept | His tag (from the Ni-NTA purification), end not stated, state not stated
On to B11, for which, in the data set with CsgG, the “CsgF-CsgG interaction in pulldown” value was “showed reduced interaction between CsgF and CsgG”.

B12: CsgFC: CsgF C-terminal domain (residues 37–119) (protein)
chain: YNDDFGIETPSALDNFTQAIQSQILGGLLSNINTGKPGRMVTNDYIVDIANRDGQLQLNVTDRKTGQTSTIQVSGLQNNSTDF
modifications: left off: MBP, C-terminal, kept | His tag (from the Ni-NTA purification of the input), end not stated, state not stated
Turning to B12, the “CsgF-CsgG interaction in pulldown” value with CsgG is on record as “unlikely to interact with CsgG”. Also, the “pulldown of CsgB” value in the data set on CsgB is “full-length CsgF and CsgFC could”.

B13: CsgAN6 peptide (peptide)
peptide: GVVPQY
In data set [4], B13 gave an equilibrium dissociation constant (Kd) of 23.8 µM.

B14: CsgG (from the CsgEFG operon construct with C-terminal strep-tag II) (natural protein, E. coli K12, UniProt P0AEA2 16-277, looked up)
chain: CLTAPPKEAARPTLMPRAQSYKDLTHLPAPTGKIFVSVYNIQDETGQFKPYPASNFSTAVPQSATAMLVTALKDSRWFIPLERQGLQNLLNERKIIRAAQENGTVAINNRIPLQSLTAANIMVEGSIIGYESNVKSGGVGARYFGIGADTQYQLDQIAVNLRVVNVSTGEILSSVNTSKTILSYEVQAGVFRFIDYQRLLEGEVGYTSNEPVMLCLMSAIETGVIFLINDGIDRGLWDLQNKAERQNDILVKYRHMSVPPES
notes: also called CsgG channel; CsgG subcomplex; source: E. coli BL21 (DE3), co-expressed from the CsgEFG operon; membrane fraction solubilised in DDM/LDAO, purified (Strep-Tactin, SEC); not shown: strep-tag II, C-terminal, kept
In the case of B14, in data set [1], the “stoichiometry N” value worked out at 9 subunits.

The record behind these values is PMC6957492, “Assembly and substrate recognition of curli biogenesis system” (Nature Communications, 2020).
